These substances were tested against immobilized CD52 (human) (UniProt P31358) (assay: Fab fragments assayed for binding to immobilized CD52).
With “humanized Campath-1 Fab with (VH) CDR1 replaced by that of NEW” the fold reduction of binding against the humanized Campath-1 Fab was 3 fold.
“humanized Campath-1 Fab with (VH) CDR3 replaced by that of NEW” was tested, and the fold reduction of binding against the humanized Campath-1 Fab was 8 fold.
“humanized Campath-1 Fab with (VL) CDR3 replaced by that of REI” was tested, and the fold reduction of binding against the humanized Campath-1 Fab was 3 fold.

Source: US8440190
